Experiment [1] addresses MUC16 (CA125), native, membrane-bound on cancer cells (human (endogenous in OVCAR3 and HeLa)) (UniProt Q8WXI7).
Experiment [2] shares this target. The source holds these as a separate data set.
The target is the same in experiment [3]. As to the kind of experiment: flow cytometry on cells; OVCAR3 cells in suspension incubated with HEK293T-derived culture supernatant containing soluble mesothelin; bound mesothelin detected with anti-FLAG mAb M2 and FITC-conjugated secondary Ab; culture medium alone as negative control. (Flow cytometry measures light scatter and fluorescence of single cells or particles in a stream.)

In the case of “Meso-TR3 (mesothelin-TR3 fusion protein) (from UniProt P50591 39-281; P50591 39-281; P50591 39-281)”, the share of MUC16-positive cells in the HeLa cell pool after Meso-TR3 treatment, by flow cytometry (80% to 54%; non-targeted TR3 did not shift the ratio) in experiment [1] was more than 30%. Also, in experiment [2], the reduction of the luciferase signal (tumor burden) of intraperitoneal OVCAR3 xenografts in NOD/SCID mice at 7 days of i.p. treatment with Meso-TR3 (control and TR3 groups did not respond) turned out to be 600 fold.
In the case of “soluble mesothelin (FLAG tagged, GPI anchor-deleted mature form) (ligand)”, the percent of cells positive for bound mesothelin (FLAG epitope tag) in experiment [3] was 100%.

The record behind these values is article PMC3903436.
